The target of test [1] is T1, GST-tagged full-length PARI (human, UniProt Q9NWS1 1-579).
T1 sequence (looked up): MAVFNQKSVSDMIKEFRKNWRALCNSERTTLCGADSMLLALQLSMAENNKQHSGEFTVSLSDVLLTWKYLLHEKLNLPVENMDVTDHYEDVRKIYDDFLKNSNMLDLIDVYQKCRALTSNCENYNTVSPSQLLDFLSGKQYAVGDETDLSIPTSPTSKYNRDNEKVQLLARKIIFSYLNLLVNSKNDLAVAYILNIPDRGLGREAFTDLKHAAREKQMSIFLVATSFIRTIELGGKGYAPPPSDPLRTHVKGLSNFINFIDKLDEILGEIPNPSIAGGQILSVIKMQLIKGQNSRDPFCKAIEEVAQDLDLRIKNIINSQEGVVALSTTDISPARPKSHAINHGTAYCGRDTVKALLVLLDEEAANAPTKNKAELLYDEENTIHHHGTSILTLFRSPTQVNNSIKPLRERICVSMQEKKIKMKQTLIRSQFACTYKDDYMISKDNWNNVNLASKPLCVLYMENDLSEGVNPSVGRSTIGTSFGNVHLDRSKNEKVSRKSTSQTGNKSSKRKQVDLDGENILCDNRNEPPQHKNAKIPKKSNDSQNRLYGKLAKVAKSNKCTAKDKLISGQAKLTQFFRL
The test is described as follows: pull-down.

In test [2] the target is T2, Recombinant Flag-tagged PARI purified from insect cells (human, UniProt Q9NWS1 1-579).
T2 sequence (looked up): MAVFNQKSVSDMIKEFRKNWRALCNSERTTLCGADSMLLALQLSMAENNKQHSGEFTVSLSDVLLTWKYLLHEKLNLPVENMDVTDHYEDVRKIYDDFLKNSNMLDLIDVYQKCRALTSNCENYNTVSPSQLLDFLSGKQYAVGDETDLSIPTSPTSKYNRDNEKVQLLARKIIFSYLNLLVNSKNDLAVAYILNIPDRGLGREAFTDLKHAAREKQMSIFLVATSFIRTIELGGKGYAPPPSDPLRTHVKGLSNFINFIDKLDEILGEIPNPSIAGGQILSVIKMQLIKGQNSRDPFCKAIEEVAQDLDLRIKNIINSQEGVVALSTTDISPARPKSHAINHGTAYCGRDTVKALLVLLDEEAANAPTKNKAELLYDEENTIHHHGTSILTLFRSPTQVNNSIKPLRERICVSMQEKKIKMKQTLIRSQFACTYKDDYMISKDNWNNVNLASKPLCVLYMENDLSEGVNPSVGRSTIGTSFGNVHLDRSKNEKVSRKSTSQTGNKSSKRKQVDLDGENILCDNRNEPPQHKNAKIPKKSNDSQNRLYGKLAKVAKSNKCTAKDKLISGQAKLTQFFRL
The test is described as follows: pull-down.

B1: Recombinant human RAD51 expressed and purified from bacteria (natural protein, UniProt Q06609 1-339, looked up)
chain: MAMQMQLEANADTSVEEESFGPQPISRLEQCGINANDVKKLEEAGFHTVEAVAYAPKKELINIKGISEAKADKILAEAAKLVPMGFTTATEFHQRRSEIIQITTGSKELDKLLQGGIETGSITEMFGEFRTGKTQICHTLAVTCQLPIDRGGGEGKAMYIDTEGTFRPERLLAVAERYGLSGSDVLDNVAYARAFNTDHQTQLLYQASAMMVESRYALLIVDSATALYRTDYSGRGELSARQMHLARFLRMLLRLADEFGVAVVITNQVVAQVDGAAMFAADPKKPIGGNIIAHASTTRLYLRKGRGETRICKIYDSPCLPEAEAMFAINADGVGDAKD
Take B1: the binding result in test [1] is reported as “binds”.

B2: GST-tagged human RAD51 (natural protein, UniProt Q06609 1-339, looked up)
chain: MAMQMQLEANADTSVEEESFGPQPISRLEQCGINANDVKKLEEAGFHTVEAVAYAPKKELINIKGISEAKADKILAEAAKLVPMGFTTATEFHQRRSEIIQITTGSKELDKLLQGGIETGSITEMFGEFRTGKTQICHTLAVTCQLPIDRGGGEGKAMYIDTEGTFRPERLLAVAERYGLSGSDVLDNVAYARAFNTDHQTQLLYQASAMMVESRYALLIVDSATALYRTDYSGRGELSARQMHLARFLRMLLRLADEFGVAVVITNQVVAQVDGAAMFAADPKKPIGGNIIAHASTTRLYLRKGRGETRICKIYDSPCLPEAEAMFAINADGVGDAKD
As for B2, the binding result in test [2] is on record as “binds”.

(Values after publication PMC3267324 (Molecular Cell, 2011).)
